Our source for the Kd values is publication doi:10.1101/2024.09.06.611148.

The target of the test is Alexa-647 NHS-labelled tubulin (UniProt P02550). As to the kind of experiment: MST.
Alexa-647 NHS-labelled tubulin, sequence (P02550 whole entry, looked up): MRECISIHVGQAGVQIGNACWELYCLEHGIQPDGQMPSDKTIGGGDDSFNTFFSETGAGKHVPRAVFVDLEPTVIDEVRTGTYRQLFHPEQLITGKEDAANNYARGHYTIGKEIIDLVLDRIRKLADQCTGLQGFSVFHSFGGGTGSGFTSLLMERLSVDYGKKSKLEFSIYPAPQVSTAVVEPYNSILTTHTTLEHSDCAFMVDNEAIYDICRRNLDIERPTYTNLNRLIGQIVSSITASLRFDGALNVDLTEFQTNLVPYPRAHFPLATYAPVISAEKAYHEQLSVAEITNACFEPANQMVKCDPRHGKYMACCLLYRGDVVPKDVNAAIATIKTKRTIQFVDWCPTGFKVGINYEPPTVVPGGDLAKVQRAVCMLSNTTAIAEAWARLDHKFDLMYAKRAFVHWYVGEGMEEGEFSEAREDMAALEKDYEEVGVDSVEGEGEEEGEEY

“recombinant HYC2 (GST-HYC2 or HYC2-6XHis) (from UniProt Q9FMI8 1-448) (natural protein)”: the Kd was found to be 690 nM.

By Kd is commonly meant the concentration at which binding is half-saturated.
